To fix the notation:
B1: Cytoplasmic polyadenylation element-binding protein 2, residues 513 to 575; numbered along this chain, Q7Z5Q1 (parent)
chain: KRVEVKPYVLDDQMCDECQGARCGGKFAPFFCANVTCLQYYCEFCWANIHSRAGREFHKPLVK

± gives the uncertainty stated by the source.

Variants of B1 are the subject of this data set. In words: abundance fitness (aPCA) (normalised: wild type 0, dead -1); higher = more abundant; growth selection in yeast, the domain comes from the species named. The conditions noted are these: Homo sapiens.
In the case of KRVEVKPYVLDDQMCDECQGARCGGKFAPFVCANVTCLQYYCEFCWANIHSRAGREFHKPLVK [F31V], the abundance fitness is -0.622 ± 0.084. Under KRVEVKPYVLDDQMCDECQGARCGGKFAPFWCANVTCLQYYCEFCWANIHSRAGREFHKPLVK [F31W] stands -0.04 ± 0.036. Under KRVEVKPYVLDDQMCDECQGARCGGKFAPFNCANVTCLQYYCEFCWANIHSRAGREFHKPLVK [F31N] stands -0.608 ± 0.098; under KRVEVKPYVLDDQMCDECQGARCGGKFAPFCCANVTCLQYYCEFCWANIHSRAGREFHKPLVK [F31C], -0.547 ± 0.082. As to KRVEVKPYVLDDQMCDECQGARCGGKFAPFACANVTCLQYYCEFCWANIHSRAGREFHKPLVK [F31A], the abundance fitness is -0.644 ± 0.081. Under KRVEVKPYVLDDQMCDECQGARCGGKFAPFKCANVTCLQYYCEFCWANIHSRAGREFHKPLVK [F31K] stands -0.332 ± 0.09; under KRVEVKPYVLDDQMCDECQGARCGGKFAPFLCANVTCLQYYCEFCWANIHSRAGREFHKPLVK [F31L], -0.328 ± 0.047; under KRVEVKPYVLDDQMCDECQGARCGGKFAPFYCANVTCLQYYCEFCWANIHSRAGREFHKPLVK [F31Y], 0.033 ± 0.086. Next, KRVEVKPYVLDDQMCDECQGARCGGKFAPFRCANVTCLQYYCEFCWANIHSRAGREFHKPLVK [F31R]: -0.324 ± 0.039. As to KRVEVKPYVLDDQMCDECQGARCGGKFAPFTCANVTCLQYYCEFCWANIHSRAGREFHKPLVK [F31T], the abundance fitness is -0.57 ± 0.075. Next, KRVEVKPYVLDDQMCDECQGARCGGKFAPFPCANVTCLQYYCEFCWANIHSRAGREFHKPLVK [F31P]: -0.588 ± 0.069; KRVEVKPYVLDDQMCDECQGARCGGKFAPFSCANVTCLQYYCEFCWANIHSRAGREFHKPLVK [F31S]: -0.591 ± 0.053; KRVEVKPYVLDDQMCDECQGARCGGKFAPFECANVTCLQYYCEFCWANIHSRAGREFHKPLVK [F31E]: -0.291 ± 0.079.

Take KRVEVKPYVLDDQMCDECQGARCGGKFAPFHCANVTCLQYYCEFCWANIHSRAGREFHKPLVK [F31H]: the abundance fitness was -0.626 ± 0.16. Under KRVEVKPYVLDDQMCDECQGARCGGKFAPFQCANVTCLQYYCEFCWANIHSRAGREFHKPLVK [F31Q] stands -0.425 ± 0.072; under KRVEVKPYVLDDQMCDECQGARCGGKFAPFMCANVTCLQYYCEFCWANIHSRAGREFHKPLVK [F31M], -0.461 ± 0.11; under KRVEVKPYVLDDQMCDECQGARCGGKFAPFGCANVTCLQYYCEFCWANIHSRAGREFHKPLVK [F31G], -0.685 ± 0.06.

Regarding KRVEVKPYVLDDQMCDECQGARCGGKFAPFDCANVTCLQYYCEFCWANIHSRAGREFHKPLVK [F31D], the abundance fitness is -0.962 ± 0.23. Under KRVEVKPYVLDDQMCDECQGARCGGKFAPFFPANVTCLQYYCEFCWANIHSRAGREFHKPLVK [C32P] stands -0.737 ± 0.089; under KRVEVKPYVLDDQMCDECQGARCGGKFAPFFLANVTCLQYYCEFCWANIHSRAGREFHKPLVK [C32L], -0.882 ± 0.059; under KRVEVKPYVLDDQMCDECQGARCGGKFAPFFMANVTCLQYYCEFCWANIHSRAGREFHKPLVK [C32M], -0.793 ± 0.074. Next, KRVEVKPYVLDDQMCDECQGARCGGKFAPFFRANVTCLQYYCEFCWANIHSRAGREFHKPLVK [C32R]: -0.739 ± 0.079; KRVEVKPYVLDDQMCDECQGARCGGKFAPFFNANVTCLQYYCEFCWANIHSRAGREFHKPLVK [C32N]: -0.724 ± 0.12. Next, KRVEVKPYVLDDQMCDECQGARCGGKFAPFFFANVTCLQYYCEFCWANIHSRAGREFHKPLVK [C32F]: -1.1 ± 0.18; KRVEVKPYVLDDQMCDECQGARCGGKFAPFFGANVTCLQYYCEFCWANIHSRAGREFHKPLVK [C32G]: -0.802 ± 0.08. Turning to KRVEVKPYVLDDQMCDECQGARCGGKFAPFFSANVTCLQYYCEFCWANIHSRAGREFHKPLVK [C32S], the abundance fitness is -0.664 ± 0.06. In the case of KRVEVKPYVLDDQMCDECQGARCGGKFAPFFIANVTCLQYYCEFCWANIHSRAGREFHKPLVK [C32I], the abundance fitness is -0.47 ± 0.2. KRVEVKPYVLDDQMCDECQGARCGGKFAPFFKANVTCLQYYCEFCWANIHSRAGREFHKPLVK [C32K]: the abundance fitness is -0.617 ± 0.072. Under KRVEVKPYVLDDQMCDECQGARCGGKFAPFFWANVTCLQYYCEFCWANIHSRAGREFHKPLVK [C32W] stands -0.929 ± 0.13; under KRVEVKPYVLDDQMCDECQGARCGGKFAPFFQANVTCLQYYCEFCWANIHSRAGREFHKPLVK [C32Q], -0.742 ± 0.096. Next, KRVEVKPYVLDDQMCDECQGARCGGKFAPFFEANVTCLQYYCEFCWANIHSRAGREFHKPLVK [C32E]: -0.683 ± 0.056. Next, KRVEVKPYVLDDQMCDECQGARCGGKFAPFFYANVTCLQYYCEFCWANIHSRAGREFHKPLVK [C32Y]: -0.837 ± 0.11; KRVEVKPYVLDDQMCDECQGARCGGKFAPFFHANVTCLQYYCEFCWANIHSRAGREFHKPLVK [C32H]: -0.917 ± 0.15. KRVEVKPYVLDDQMCDECQGARCGGKFAPFFTANVTCLQYYCEFCWANIHSRAGREFHKPLVK [C32T]: the abundance fitness was -0.779 ± 0.06. Under KRVEVKPYVLDDQMCDECQGARCGGKFAPFFCPNVTCLQYYCEFCWANIHSRAGREFHKPLVK [A33P] stands -0.072 ± 0.05; under KRVEVKPYVLDDQMCDECQGARCGGKFAPFFCYNVTCLQYYCEFCWANIHSRAGREFHKPLVK [A33Y], 0.009 ± 0.089.

Regarding KRVEVKPYVLDDQMCDECQGARCGGKFAPFFCVNVTCLQYYCEFCWANIHSRAGREFHKPLVK [A33V], the abundance fitness is -0.124 ± 0.044. Next, KRVEVKPYVLDDQMCDECQGARCGGKFAPFFCHNVTCLQYYCEFCWANIHSRAGREFHKPLVK [A33H]: -0.177 ± 0.1; KRVEVKPYVLDDQMCDECQGARCGGKFAPFFCLNVTCLQYYCEFCWANIHSRAGREFHKPLVK [A33L]: -0.311 ± 0.042; KRVEVKPYVLDDQMCDECQGARCGGKFAPFFCWNVTCLQYYCEFCWANIHSRAGREFHKPLVK [A33W]: -0.28 ± 0.042. Under KRVEVKPYVLDDQMCDECQGARCGGKFAPFFCDNVTCLQYYCEFCWANIHSRAGREFHKPLVK [A33D] stands 0.12 ± 0.063; under KRVEVKPYVLDDQMCDECQGARCGGKFAPFFCKNVTCLQYYCEFCWANIHSRAGREFHKPLVK [A33K], -0.147 ± 0.085.

Source of the values: the Human Domainome abundance scans (Beltran et al. 2025).
